# Target: human ST2.Fc (extracellular domain of ST2 fused to Fc) (human) (UniProt Q01638)
# Sequence of UniProt Q01638 (Q01638 19-328): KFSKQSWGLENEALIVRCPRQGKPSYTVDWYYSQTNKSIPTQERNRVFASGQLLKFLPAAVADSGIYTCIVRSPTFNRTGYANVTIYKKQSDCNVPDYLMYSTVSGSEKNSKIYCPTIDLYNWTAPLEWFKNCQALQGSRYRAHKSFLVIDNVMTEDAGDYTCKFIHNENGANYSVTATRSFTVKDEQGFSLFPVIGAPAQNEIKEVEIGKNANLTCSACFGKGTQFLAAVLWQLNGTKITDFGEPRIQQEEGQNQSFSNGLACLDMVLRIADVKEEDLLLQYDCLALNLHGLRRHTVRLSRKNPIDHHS
molecule,measurement,value
"human IL-33 (amino acids 112-270), reduced form (from UniProt O95760 112-270) (ligand)",EC50 in a short duration signalling assay (NFκB p65/RelA translocation in HUVEC),0.15 nM
"human IL-33 (112-270) complete Cys→Ser mutant (C208S, C227S, C232S and C259S) (ligand) SITGISPITEYLASLSTYNDQSITFALEDESYEIYVEDLKKDEKKDKVLLSYYESQHPSNESGDGVDGKMLMVTLSPTKDFWLHANNKEHSVELHKSEKPLPDQAFFVLHNMHSNSVSFESKTDPGVFIGVKDNHLALIKVDSSENLSTENILFKLSET",EC50 in a short duration signalling assay (NFκB p65/RelA translocation in HUVEC),0.15 nM

# — paper PMC4579851
